Laboratory results published in paper PMC11186044, “Rationally Engineering pH Adaptation of Acid‐Induced Arginine Decarboxylase from Escherichia coli to Alkaline Environments to Efficiently Biosynthesize Putrescine” (Advanced Science, 2024).

Columns and labels:
SpeB = molecular target: T1, SpeB (Escherichia coli, UniProt P60651); assay: agmatinase activity versus pH (details in supplement); format: biochemical; conditions: alkaline pH preferred; enzyme preparation not given
T1 construct: agmatinase; construct and assay details only in supplement
T1 sequence (P60651 1-306): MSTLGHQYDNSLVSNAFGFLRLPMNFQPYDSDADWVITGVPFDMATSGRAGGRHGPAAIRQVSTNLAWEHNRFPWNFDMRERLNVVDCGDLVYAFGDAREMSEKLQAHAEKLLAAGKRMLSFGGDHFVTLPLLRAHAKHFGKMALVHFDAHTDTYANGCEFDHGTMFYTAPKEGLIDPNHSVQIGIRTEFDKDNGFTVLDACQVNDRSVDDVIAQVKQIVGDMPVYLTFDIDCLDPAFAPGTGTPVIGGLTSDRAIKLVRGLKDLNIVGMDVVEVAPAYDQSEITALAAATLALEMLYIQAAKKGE

[1] = substrate: N=C(N)NCCC[C@H](N)C(=O)O; assay: agmatine formation by HPLC, Michaelis-Menten fit; format: biochemical, Escherichia coli; conditions: pH 7.0, 37 °C, 0.5 mmol·L^−1 PLP, 2.5 mmol·L^−1 MgSO4, 5 mmol·L^−1 DTT
Excerpt: agmatine formation by HPLC, Michaelis-Menten fit on AdiA

N=C(N)NCCCCN [agmatine]
agmatinase activity versus pH (details in supplement) (SpeB): SpeB, agmatinase that catalyzes the synthesis of putrescine from agmatine

B1: AdiA (Escherichia coli K-12) (protein)
chain: MKVLIVESEFLHQDTWVGNAVERLADALSQQNVTVIKSTSFDDGFAILSSNEAIDCLMFSYQMEHPDEHQNVRQLIGKLHERQQNVPVFLLGDREKALAAMDRDLLELVDEFAWILEDTADFIAGRAVAAMTRYRQQLLPPLFSALMKYSDIHEYSWAAPGHQGGVGFTKTPAGRFYHDYYGENLFRTDMGIERTSLGSLLDHTGAFGESEKYAARVFGADRSWSVVVGTSGSNRTIMQACMTDNDVVVVDRNCHKSIEQGLMLTGAKPVYMVPSRNRYGIIGPIYPQEMQPETLQKKISESPLTKDKAGQKPSYCVVTNCTYDGVCYNAKEAQDLLEKTSDRLHFDEAWYGYARFNPIYADHYAMRGEPGDHNGPTVFATHSTHKLLNALSQASYIHVREGRGAINFSRFNQAYMMHATTSPLYAICASNDVAVSMMDGNSGLSLTQEVIDEAVDFRQAMARLYKEFTADGSWFFKPWNKEVVTDPQTGKTYDFADAPTKLLTTVQDCWVMHPGESWHGFKDIPDNWSMLDPIKVSILAPGMGEDGELEETGVPAALVTAWLGRHGIVPTRTTDFQIMFLFSMGVTRGKWGTLVNTLCSFKRHYDANTPLAQVMPELVEQYPDTYANMGIHDLGDTMFAWLKENNPGARLNEAYSGLPVAEVTPREAYNAIVDNNVELVSIENLPGRIAANSVIPYPPGIPMLLSGENFGDKNSPQVSYLRSLQSWDHHFPGFEHETEGTEIIDGIYHVMCVKA
notes: recombinant full-length acid-induced arginine decarboxylase; homodecamer (five dimers) with PLP; plasmids in supplement
Km [1]: 12.08 ± 0.86 mmol/L | kcat [1]: 3.54 ± 0.28 s⁻¹ | kcat/Km [1]: 290 M⁻¹ s⁻¹

B2: AdiA (Escherichia coli K-12; H736E) (protein)
chain: MKVLIVESEFLHQDTWVGNAVERLADALSQQNVTVIKSTSFDDGFAILSSNEAIDCLMFSYQMEHPDEHQNVRQLIGKLHERQQNVPVFLLGDREKALAAMDRDLLELVDEFAWILEDTADFIAGRAVAAMTRYRQQLLPPLFSALMKYSDIHEYSWAAPGHQGGVGFTKTPAGRFYHDYYGENLFRTDMGIERTSLGSLLDHTGAFGESEKYAARVFGADRSWSVVVGTSGSNRTIMQACMTDNDVVVVDRNCHKSIEQGLMLTGAKPVYMVPSRNRYGIIGPIYPQEMQPETLQKKISESPLTKDKAGQKPSYCVVTNCTYDGVCYNAKEAQDLLEKTSDRLHFDEAWYGYARFNPIYADHYAMRGEPGDHNGPTVFATHSTHKLLNALSQASYIHVREGRGAINFSRFNQAYMMHATTSPLYAICASNDVAVSMMDGNSGLSLTQEVIDEAVDFRQAMARLYKEFTADGSWFFKPWNKEVVTDPQTGKTYDFADAPTKLLTTVQDCWVMHPGESWHGFKDIPDNWSMLDPIKVSILAPGMGEDGELEETGVPAALVTAWLGRHGIVPTRTTDFQIMFLFSMGVTRGKWGTLVNTLCSFKRHYDANTPLAQVMPELVEQYPDTYANMGIHDLGDTMFAWLKENNPGARLNEAYSGLPVAEVTPREAYNAIVDNNVELVSIENLPGRIAANSVIPYPPGIPMLLSGENFGDKNSPQVSYLRSLQSWDHHFPGFEEETEGTEIIDGIYHVMCVKA
notes: as for B1
Km [1]: 15.27 ± 0.79 mmol/L | kcat [1]: 17.5 ± 0.55 s⁻¹ | kcat/Km [1]: 1150 M⁻¹ s⁻¹

B3: AdiA (Escherichia coli K-12; E467K/H736E) (protein)
chain: MKVLIVESEFLHQDTWVGNAVERLADALSQQNVTVIKSTSFDDGFAILSSNEAIDCLMFSYQMEHPDEHQNVRQLIGKLHERQQNVPVFLLGDREKALAAMDRDLLELVDEFAWILEDTADFIAGRAVAAMTRYRQQLLPPLFSALMKYSDIHEYSWAAPGHQGGVGFTKTPAGRFYHDYYGENLFRTDMGIERTSLGSLLDHTGAFGESEKYAARVFGADRSWSVVVGTSGSNRTIMQACMTDNDVVVVDRNCHKSIEQGLMLTGAKPVYMVPSRNRYGIIGPIYPQEMQPETLQKKISESPLTKDKAGQKPSYCVVTNCTYDGVCYNAKEAQDLLEKTSDRLHFDEAWYGYARFNPIYADHYAMRGEPGDHNGPTVFATHSTHKLLNALSQASYIHVREGRGAINFSRFNQAYMMHATTSPLYAICASNDVAVSMMDGNSGLSLTQEVIDEAVDFRQAMARLYKKFTADGSWFFKPWNKEVVTDPQTGKTYDFADAPTKLLTTVQDCWVMHPGESWHGFKDIPDNWSMLDPIKVSILAPGMGEDGELEETGVPAALVTAWLGRHGIVPTRTTDFQIMFLFSMGVTRGKWGTLVNTLCSFKRHYDANTPLAQVMPELVEQYPDTYANMGIHDLGDTMFAWLKENNPGARLNEAYSGLPVAEVTPREAYNAIVDNNVELVSIENLPGRIAANSVIPYPPGIPMLLSGENFGDKNSPQVSYLRSLQSWDHHFPGFEEETEGTEIIDGIYHVMCVKA
notes: as for B1
Km [1]: 15.70 ± 0.87 mmol/L | kcat [1]: 29.2 ± 0.44 s⁻¹ | kcat/Km [1]: 1860 M⁻¹ s⁻¹

B4: AdiA (Escherichia coli K-12; E467K) (protein)
chain: MKVLIVESEFLHQDTWVGNAVERLADALSQQNVTVIKSTSFDDGFAILSSNEAIDCLMFSYQMEHPDEHQNVRQLIGKLHERQQNVPVFLLGDREKALAAMDRDLLELVDEFAWILEDTADFIAGRAVAAMTRYRQQLLPPLFSALMKYSDIHEYSWAAPGHQGGVGFTKTPAGRFYHDYYGENLFRTDMGIERTSLGSLLDHTGAFGESEKYAARVFGADRSWSVVVGTSGSNRTIMQACMTDNDVVVVDRNCHKSIEQGLMLTGAKPVYMVPSRNRYGIIGPIYPQEMQPETLQKKISESPLTKDKAGQKPSYCVVTNCTYDGVCYNAKEAQDLLEKTSDRLHFDEAWYGYARFNPIYADHYAMRGEPGDHNGPTVFATHSTHKLLNALSQASYIHVREGRGAINFSRFNQAYMMHATTSPLYAICASNDVAVSMMDGNSGLSLTQEVIDEAVDFRQAMARLYKKFTADGSWFFKPWNKEVVTDPQTGKTYDFADAPTKLLTTVQDCWVMHPGESWHGFKDIPDNWSMLDPIKVSILAPGMGEDGELEETGVPAALVTAWLGRHGIVPTRTTDFQIMFLFSMGVTRGKWGTLVNTLCSFKRHYDANTPLAQVMPELVEQYPDTYANMGIHDLGDTMFAWLKENNPGARLNEAYSGLPVAEVTPREAYNAIVDNNVELVSIENLPGRIAANSVIPYPPGIPMLLSGENFGDKNSPQVSYLRSLQSWDHHFPGFEHETEGTEIIDGIYHVMCVKA
notes: as for B1
Km [1]: 14.30 ± 0.64 mmol/L | kcat [1]: 15.2 ± 0.23 s⁻¹ | kcat/Km [1]: 1060 M⁻¹ s⁻¹
